# Results from US20230242902A1, “A HIGHLY ERROR-PRONE […] R[…] FOR TARGETED CONTINUOUS EVOLUTION IN VIVO” (The Regents of the University of California, priority 2017, published 2023).
# Test system: p1
# Assay: p1 copy number by p1-encoded mKate2 fluorescence
# Format: cell-based, S. cerevisiae
# Details: OR-Y24, measured in triplicate
# Summary of the method: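 p1 copy number came from mKate2 fluorescence of saturated OR-Y24 cultures (triplicates, regrown from 1:10,000), read by flow cytometry and converted through a linear curve calibrated by qPCR (LEU2 against genomic LEU3). For small-scale tests, OD600-normalized plate-reader fluorescence (588/633 nm) was scaled to a w.t. TP-DNAP1 control.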
row,Molecule,Mean fold-increase over w.t. (p1 copy number) [fold]
1,T303L: TP-DNAP1 variant (protein) MDYKDKALNDLRNVYADFDSLPLDFRQILIKDRATLLQKEDVEKKILERQEDAKKYAEYLKQSEIPERISLPNIKRHKGVSISFEETSEDMVLEPRPFIFDGLNIRCFRRETIFSLKNKILNMVKESSSFKNVSRQSVSFMYFKIFNKGKVIASTKSVNIYEDKIDERLEDLCNNFDDVLKKIIDVTYGYESLFVSETYSYVIFYAKSIYFPQPRCVNNWGNNIPNILTFDSFKLFTANKNNVSCIKQCSRFLWQKDFNTLEEMIEYKNGNICIVTPQLHINDVRDIKSFNDIRLYSESPIKLFSVIDNTITYLFYFKEHLGVIFNITKSRHDRRVTKFSPLSKFSDVKNITVCFDIESYFDPEKESNQVNIPFICCASIIYNKVIGNIVDFEGRDCVAQMIEYVVDICGELNISSVELIAHNGGGYDFHYILSSMYNPAAIKNILIRNNSFISFNFAHDGVKFSVKDSYSFLLCSLANASKAFLNEETFKKTDFPHHDLKTADDLYKVYKEWSSVNTEINHVVEKEKLLITSEHIVNFTKNDKSKTLIEWSKDYCRNDVLVLSKVWLEFKNAVEDIFNCELVDQTMTLAGLSYKLFQANMPFDVELRHPNKEDYFNMREALIGGRCISVNGIYKDVLCLDVKSLYPASMAFYDQPYGSFKRVSSRPKDELGIYYVRVTPNRNNKSNFFPIRSHNKITYNNFEESTYIAWYTNVDIDIGLSEGHNIEYIPFDSYGNIGYSWSKKGKIFEKYIKDVLYKLKIKYEKQNNKVKRNVIKIIMNSLWGKFAQKWVNFEYFIKSEDDIDFESEEAYKIWDTDFMLIKKIKESTYSSKPIQNGVFTLSWARYHMKSIWDAGAKEGAECIYSDTDSIFVHKEHFKKNAKFMLNGLKVPIIGSEVGQLELECEFDKLLCAGKKQYMGFYTYFQDGKPCIKEKKRFKGIPSNYIIPELYAHLLSGADKEAKIQFLKFRREWGSVKGYIENKTVKAT,2.41
2,T303M: TP-DNAP1 variant (protein) MDYKDKALNDLRNVYADFDSLPLDFRQILIKDRATLLQKEDVEKKILERQEDAKKYAEYLKQSEIPERISLPNIKRHKGVSISFEETSEDMVLEPRPFIFDGLNIRCFRRETIFSLKNKILNMVKESSSFKNVSRQSVSFMYFKIFNKGKVIASTKSVNIYEDKIDERLEDLCNNFDDVLKKIIDVTYGYESLFVSETYSYVIFYAKSIYFPQPRCVNNWGNNIPNILTFDSFKLFTANKNNVSCIKQCSRFLWQKDFNTLEEMIEYKNGNICIVTPQLHINDVRDIKSFNDIRLYSESPIKMFSVIDNTITYLFYFKEHLGVIFNITKSRHDRRVTKFSPLSKFSDVKNITVCFDIESYFDPEKESNQVNIPFICCASIIYNKVIGNIVDFEGRDCVAQMIEYVVDICGELNISSVELIAHNGGGYDFHYILSSMYNPAAIKNILIRNNSFISFNFAHDGVKFSVKDSYSFLLCSLANASKAFLNEETFKKTDFPHHDLKTADDLYKVYKEWSSVNTEINHVVEKEKLLITSEHIVNFTKNDKSKTLIEWSKDYCRNDVLVLSKVWLEFKNAVEDIFNCELVDQTMTLAGLSYKLFQANMPFDVELRHPNKEDYFNMREALIGGRCISVNGIYKDVLCLDVKSLYPASMAFYDQPYGSFKRVSSRPKDELGIYYVRVTPNRNNKSNFFPIRSHNKITYNNFEESTYIAWYTNVDIDIGLSEGHNIEYIPFDSYGNIGYSWSKKGKIFEKYIKDVLYKLKIKYEKQNNKVKRNVIKIIMNSLWGKFAQKWVNFEYFIKSEDDIDFESEEAYKIWDTDFMLIKKIKESTYSSKPIQNGVFTLSWARYHMKSIWDAGAKEGAECIYSDTDSIFVHKEHFKKNAKFMLNGLKVPIIGSEVGQLELECEFDKLLCAGKKQYMGFYTYFQDGKPCIKEKKRFKGIPSNYIIPELYAHLLSGADKEAKIQFLKFRREWGSVKGYIENKTVKAT,2.5
3,T303W: TP-DNAP1 variant (protein) MDYKDKALNDLRNVYADFDSLPLDFRQILIKDRATLLQKEDVEKKILERQEDAKKYAEYLKQSEIPERISLPNIKRHKGVSISFEETSEDMVLEPRPFIFDGLNIRCFRRETIFSLKNKILNMVKESSSFKNVSRQSVSFMYFKIFNKGKVIASTKSVNIYEDKIDERLEDLCNNFDDVLKKIIDVTYGYESLFVSETYSYVIFYAKSIYFPQPRCVNNWGNNIPNILTFDSFKLFTANKNNVSCIKQCSRFLWQKDFNTLEEMIEYKNGNICIVTPQLHINDVRDIKSFNDIRLYSESPIKWFSVIDNTITYLFYFKEHLGVIFNITKSRHDRRVTKFSPLSKFSDVKNITVCFDIESYFDPEKESNQVNIPFICCASIIYNKVIGNIVDFEGRDCVAQMIEYVVDICGELNISSVELIAHNGGGYDFHYILSSMYNPAAIKNILIRNNSFISFNFAHDGVKFSVKDSYSFLLCSLANASKAFLNEETFKKTDFPHHDLKTADDLYKVYKEWSSVNTEINHVVEKEKLLITSEHIVNFTKNDKSKTLIEWSKDYCRNDVLVLSKVWLEFKNAVEDIFNCELVDQTMTLAGLSYKLFQANMPFDVELRHPNKEDYFNMREALIGGRCISVNGIYKDVLCLDVKSLYPASMAFYDQPYGSFKRVSSRPKDELGIYYVRVTPNRNNKSNFFPIRSHNKITYNNFEESTYIAWYTNVDIDIGLSEGHNIEYIPFDSYGNIGYSWSKKGKIFEKYIKDVLYKLKIKYEKQNNKVKRNVIKIIMNSLWGKFAQKWVNFEYFIKSEDDIDFESEEAYKIWDTDFMLIKKIKESTYSSKPIQNGVFTLSWARYHMKSIWDAGAKEGAECIYSDTDSIFVHKEHFKKNAKFMLNGLKVPIIGSEVGQLELECEFDKLLCAGKKQYMGFYTYFQDGKPCIKEKKRFKGIPSNYIIPELYAHLLSGADKEAKIQFLKFRREWGSVKGYIENKTVKAT,2.96
4,F304A: TP-DNAP1 variant (protein) MDYKDKALNDLRNVYADFDSLPLDFRQILIKDRATLLQKEDVEKKILERQEDAKKYAEYLKQSEIPERISLPNIKRHKGVSISFEETSEDMVLEPRPFIFDGLNIRCFRRETIFSLKNKILNMVKESSSFKNVSRQSVSFMYFKIFNKGKVIASTKSVNIYEDKIDERLEDLCNNFDDVLKKIIDVTYGYESLFVSETYSYVIFYAKSIYFPQPRCVNNWGNNIPNILTFDSFKLFTANKNNVSCIKQCSRFLWQKDFNTLEEMIEYKNGNICIVTPQLHINDVRDIKSFNDIRLYSESPIKTASVIDNTITYLFYFKEHLGVIFNITKSRHDRRVTKFSPLSKFSDVKNITVCFDIESYFDPEKESNQVNIPFICCASIIYNKVIGNIVDFEGRDCVAQMIEYVVDICGELNISSVELIAHNGGGYDFHYILSSMYNPAAIKNILIRNNSFISFNFAHDGVKFSVKDSYSFLLCSLANASKAFLNEETFKKTDFPHHDLKTADDLYKVYKEWSSVNTEINHVVEKEKLLITSEHIVNFTKNDKSKTLIEWSKDYCRNDVLVLSKVWLEFKNAVEDIFNCELVDQTMTLAGLSYKLFQANMPFDVELRHPNKEDYFNMREALIGGRCISVNGIYKDVLCLDVKSLYPASMAFYDQPYGSFKRVSSRPKDELGIYYVRVTPNRNNKSNFFPIRSHNKITYNNFEESTYIAWYTNVDIDIGLSEGHNIEYIPFDSYGNIGYSWSKKGKIFEKYIKDVLYKLKIKYEKQNNKVKRNVIKIIMNSLWGKFAQKWVNFEYFIKSEDDIDFESEEAYKIWDTDFMLIKKIKESTYSSKPIQNGVFTLSWARYHMKSIWDAGAKEGAECIYSDTDSIFVHKEHFKKNAKFMLNGLKVPIIGSEVGQLELECEFDKLLCAGKKQYMGFYTYFQDGKPCIKEKKRFKGIPSNYIIPELYAHLLSGADKEAKIQFLKFRREWGSVKGYIENKTVKAT,2.14
